Source: US10428140B2, “Anti-EphA4 antibody” (EISAI R&D MANAGEMENT CO., LTD., priority 2015, dated 2019)

Legend:
[1] = test system: mouse Eph receptor (EphA1-A8, A10, EphB1-B4, B6); test: Selectivity ELISA for mouse Eph receptor family; format: binding; conditions: antibody 10 μg/mL
Description: According to the method described in Example 1, a DNA sequence encoding the signal sequence and the extracellular region of each mouse Eph receptor (EphA1, EphA3, EphA4, EphA5, EphA6, EphA7, EphA8, EphA10, EphB1, EphB2, EphB3, EphB4, and EphB6) was amplified by RT-PCR using tissue-derived total RNA and cloned into a pENTR1A vector (Invitrogen/Life Technologies) having a DNA sequence encoding a human IgG1 Fc region and histidine tag. Next, the DNA sequence encoding the signal sequence and the extracellular region of each mouse Eph receptor (EphA1, EphA3, EphA4, EphA5, EphA6, EphA7, EphA8, EphA10, EphB1, EphB2, EphB3, EphB4, and EphB6), Fc, and histidine tag was transferred to a pcDNA3.1_rfcB vector through LR reaction using Gateway System (Invitrogen/Life Technologies) to construct each mouse Eph receptor extracellular region-Fc-His protein expression vector. […]
Antibody A was evaluated for its binding activity against each mouse Eph receptor according to the following steps.
Each well of a 96-well plate (Nunc) was coated with a donkey anti-human IgG antibody (Jackson ImmunoResearch Laboratories). […] The absorbance at 450 nm was read using a microplate reader (PerkinElmer).

[2] = test system: rat hippocampal neurons; test: Ligand-induced growth cone collapse in hippocampal neurons; format: cell-based; conditions: antibody A 0.1, 0.3, 1 μM; KYL peptide 10, 30, 100 μM
Procedure: Rat hippocampal neurons were prepared as described in Example 10 above. The cells were inoculated to a 96-well plate (Greiner Bio-One) coated with poly-L-lysine containing culture solution.
The growth cone collapse assay using the hippocampal neurons was conducted according to the following steps. The rat hippocampal neurons of culture day 2 inoculated to the 96-well dish (Greiner Bio-One) were treated with PBS (Wako Pure Chemical Industries), antibody A (0.1, 0.3, and 1 μM), or an EphA4 inhibitor KYL peptide (KYLPYWPVLSSL, 10, 30, and 100 μM, its synthesis was outsourced to Toray Research Center) for 15 minutes and then treated with goat anti-human Fcγ fragment IgG1 antibody (Jackson ImmunoResearch Laboratories)-preclustered mouse Ephrin A1-Fc chimera (R&D Systems, final concentration: 1 μg/mL) (ratio: 1:5) for 30 minutes. Then, the culture solution was removed, and 2% PFA (Wako Pure Chemical Industries)/4% sucrose (Wako Pure Chemical Industries)/PBS was added, and left standing for 20 minutes to fix the cells. The solution was removed, and the cells were washed with PBS three times, followed by the addition of 0.25% Triton X-100 (Wako Pure Chemical Industries)/PBS for cell penetration treatment for 15 minutes. […] Neurons forming growth cone were counted in 30 fields of view per sample to calculate the proportion of the number of neurons causing growth cone collapse.

B1: antibody A: mouse anti-EphA4 monoclonal antibody, IgG1/κ; heavy chain variable region SEQ ID NO: 11, light chain variable region SEQ ID NO: 13 (antibody, listed as Mus musculus, V domains shown)
VH: QIQLVQSGPELKKPGETVKISCKASGYTFTDYSMHWVKQAPGKGLKWMGWINTETGEPTYADDFKGRFAFSLETSASTAYLQINNLKNEDTATYFCARIPLYYYGSRYWYFDVWGAGTTVTVSS
VL: DIQMTQSPASLSVSVGETVTITCRASENIYRNLAWYQQKQGKSPQLLVYAATNLADGVPSRFSGSGSGTQYSLKINSLQSEDFGSYYCQHFWGTPWTFGGGTKLEIK
With B1 the “binding specificity among mouse Eph receptor family (in words)” value [1] was “specifically had reaction activity only with mouse EphA4” and the “suppression of growth cone collapse induced by mouse Ephrin A1 (in words)” value [2] was “suppressed, in a concentration-dependent manner”.
